Results: article PMC3434800
Substitutions are numbered along the chain they refer to.

T1: Hel308 (ssHel308) wild type (Sulfolobus solfataricus PBL2025, UniProt D0KN27 8-715)
T1 sequence: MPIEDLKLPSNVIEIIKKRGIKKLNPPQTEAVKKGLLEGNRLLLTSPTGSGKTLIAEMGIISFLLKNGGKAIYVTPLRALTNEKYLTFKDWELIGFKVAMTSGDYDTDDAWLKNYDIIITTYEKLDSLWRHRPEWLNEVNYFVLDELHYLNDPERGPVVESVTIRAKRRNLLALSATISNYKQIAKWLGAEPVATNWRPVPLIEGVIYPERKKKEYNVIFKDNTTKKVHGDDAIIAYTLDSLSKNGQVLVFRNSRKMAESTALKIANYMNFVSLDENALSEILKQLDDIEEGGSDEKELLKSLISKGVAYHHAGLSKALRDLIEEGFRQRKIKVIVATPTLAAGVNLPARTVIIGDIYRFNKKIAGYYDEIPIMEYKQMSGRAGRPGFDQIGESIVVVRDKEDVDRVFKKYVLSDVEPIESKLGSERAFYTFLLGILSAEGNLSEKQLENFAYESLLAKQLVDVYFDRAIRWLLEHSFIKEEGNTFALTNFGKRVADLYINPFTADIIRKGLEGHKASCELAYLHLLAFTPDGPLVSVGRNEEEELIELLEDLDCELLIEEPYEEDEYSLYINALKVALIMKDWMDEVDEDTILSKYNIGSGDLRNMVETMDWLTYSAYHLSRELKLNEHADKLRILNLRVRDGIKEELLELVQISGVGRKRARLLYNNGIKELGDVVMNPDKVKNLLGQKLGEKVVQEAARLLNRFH

T2: Hel308 R662A (Sulfolobus solfataricus PBL2025, UniProt D0KN27 8-715, R669A)
T2 sequence: T1 sequence with R662A

T3: Hel308 K52A (Sulfolobus solfataricus PBL2025, UniProt D0KN27 8-715, K59A)
T3 sequence: T1 sequence with K52A

T4: Hel308 R255A (Sulfolobus solfataricus PBL2025, UniProt D0KN27 8-715, R262A)
T4 sequence: T1 sequence with R255A

B1: 15T/15A duplex, 5'-fluorescein on 15T (dsDNA)
DNA 1: TTTTTTTTTTTTTTT
DNA 2: AAAAAAAAAAAAAAA

Columns and labels:
[1] = target: T1, Hel308 (ssHel308) wild type; test: competition
[2] = target: T1, Hel308 (ssHel308) wild type; test: fluorescence anisotropy
[3] = target: T2, Hel308 R662A; test: fluorescence anisotropy
[4] = target: T3, Hel308 K52A; test: fluorescence anisotropy
[5] = target: T4, Hel308 R255A; test: fluorescence anisotropy

Binder | Kd [1] [nM] | Kd [2] [nM] | binding result [3] | binding result [4] | binding signal [5]
TTTTTTTTTTTTTTT (ssDNA) [15T ssDNA, unlabelled competitor] | 130 | – | – | – | –
B1 | – | 5300 | – | – | –
TTTTTTTTTTTTTTT (ssDNA) [15T ssDNA, 5'-fluorescein] | – | 140 | binds | binds | 25 fold increase in Kd vs wild type
